Assay [1] deals with DRG neurons from postnatal day 5 rats. The assay is described as follows: Neurite outgrowth assay, DRG neurons with myelin-associated inhibitors. Format: cell-based, rat. As to conditions: 24 hours. The protocol: FIG. 5. CK2 rescues postnatal rat neurones from inhibition of neurite outgrowth by the myelin-associated inhibitors, Nogo, MAG and OMgp. (A) DRG neurones from postnatal day 5 rats were cultured with or without the Nogo-66 fragment in the presence of the indicated reagents. After 24 hours from addition of the indicated reagents, cells were fixed and ã-tubulin III was detected by immunofluorescence. (B) The number of cells extending neurites of more than 20 μm and total ã-tubulin III positive cell number were counted from images taken in (A). The population of cells extending neurite-like structures of more than 20 μm was indicated as a percentage of total cell number. An average of three experiments is shown. Error bars indicate S. E. between experiments. Data were analysed with student's t test. […] (E) The number of cells extending neurites of more than 20 μm and total ã-tubulin III positive cell number were counted from images taken in (C and D). […] Cells were fixed and ã-tubulin III was detected by immunofluorescence. […] Over-expressed NgR1-Myc was detected by immunofluorescence. (H) The number of Myc-positive cells extending neurites of more than 20 μm and total Myc-positive cell number were counted from images taken in (G). […]

A further assay concerns NgR1. The assay is described as follows: Phosphorylation of endogenous NgR1 (upper band, immunoblotting) in RA-treated SH-SY5Y cells. Format: cell-based, human. The note with it: BDNF treatment 24 hours. On the procedure: (§1) FIG. 1. BDNF promotes neurite outgrowth of RA-treated SH-SY5Y, and induces phosphorylation of NgR1. (A) SH-SY5Y cells were incubated with indicated reagents. Cell images were taken with phase contrast microscopy. (B) Number of cells extending neurite-like structures of more than 40 μm and total cell number were counted from images taken in (A). More than 300 cells were examined in each sample. The proportion of cells extending neurite-like structures of more than 40 μm was indicated as a percentage of total cell number. An average of three experiments is shown. Error bars indicate S. E. between experiments. Data were analysed with student's t test. (C) Whole cell extracts were prepared from RA-treated SH-SY5Y cells after incubation with or without BDNF for 24 hours, and were analysed by SDS-PAGE. Immunoblotting was performed with the indicated antibodies. (D) Whole cell extract prepared from cells treated with both RA and BDNF was incubated with the indicated reagents for 1 hour at 37° C. Immunoblotting was performed with anti-NgR1 antibody. (E) RA-treated SH-SY5Y cells were incubated with BDNF in the presence or absence of one of the following: PKC inhibitor—500 nM Gö6983 or Gö6976; PKA inhibitor—2 μM KT5720 or a PKA inhibitor peptide 14-22; or either 500 nM or 1 μM of a casein kinase inhibitor, for 24 hours. Whole cell extracts prepared from these cells were analysed by SDS-PAGE. Immunoblotting was performed with anti-NgR1 antibody.
SH-SY5Y cells were cultured in Ham's F12 medium with 10% foetal bovine serum at 37° C. in 5% CO2 and 95% air. Passage numbers between 15 and 21 were used in experiments described in this paper. Further passages induce spontaneous differentiation and cells tend to extend neurites without BDNF (data not shown). For RA treatment, the cells are seeded (20,000 cells/well) on collagen IV coated 4 well chamber slides. After 24 hours culture, medium was changed to Ham's F12 medium containing 10 μM RA and 10% foetal bovine serum. Medium was changed to fresh medium on day 3 and cells were used for experiments after 5 days culture. Encinas et al. (18) reported that RA-treated SH-SY5Y cells initiate apoptosis after withdrawal of serum only when the cells are cultured at low density. The cell density used in this paper was higher than that in the paper by Encinas et al. (18) and cell death due to depletion of serum or BDNF was not significant. In this paper, the SH-SY5Y cells treated with RA for 5 days are called RA-treated SH-SY5Y. For BDNF treatment, the RA-treated SH-SY5Y cells were washed with serum-free Ham's F12 medium and incubated with 25 ng/ml BDNF in serum-free Ham's F12 medium for 24 hours. As a control (RA alone), the RA-treated SH-SY5Y cells were incubated with serum-free Ham's F12 alone for 24 hours.
Cells were scraped off from dishes and washed with PBS twice, and then resuspended in PBS containing 0.1% Triton X100 and phosphatase inhibitor cocktail (Roche) and EDTA-free protease inhibitor cocktail (Roche). After incubation for 15 min on ice, samples were centrifuged at 14,000×g for 20 min at 4° C. The supernatants containing 30 μg of proteins were analysed by SDS-PAGE and blotted to PVDF membrane. The PVDF membrane was incubated in blocking buffer (5% skimmed milk, 0.4% Triton X-100 in PBS) for 1 hour, first antibody diluted in the blocking buffer and appropriate secondary antibody labelled with horse radish peroxidase. Bound antibodies were visualised with ECL or ECL Plus kit (GE healthcare).

A further assay concerns Nogo-A, LINGO-1. Briefly: Immunoblotting of Nogo-A and LINGO-1 in RA-treated SH-SY5Y cells. As to conditions: after BDNF treatment 24 hours. Format: cell-based, human. The protocol: as §1, with “Immunoblotting was performed with anti-NgR1 antibody. (E) RA-treated SH-SY5Y cells were incubated with BDNF in the presence or absence of one of the following: PKC inhibitor—500 nM Gö6983 or Gö6976; PKA inhibitor—2 μM KT5720 or a PKA inhibitor peptide 14-22; or either 500 nM or 1 μM of a casein kinase inhibitor, for 24 hours.” left out, “Immunoblotting was performed with anti-NgR1 antibody.” left out
Cells were scraped off from dishes and washed with PBS twice, and then resuspended in PBS containing 0.1% Triton X100 and phosphatase inhibitor cocktail (Roche) and EDTA-free protease inhibitor cocktail (Roche). […] The supernatants containing 30 μg of proteins were analysed by SDS-PAGE and blotted to PVDF membrane. […]
For orientation: A western blot detects proteins with antibodies after separation by electrophoresis.

For the molecule `Nc1ncnc2c1ncn2[C@@H]1O[C@H](COP(=O)(O)OP(=O)(O)OP(=O)(O)O)[C@@H](O)[C@H]1O` [ATP], the “neurite outgrowth in the presence of the Nogo-66 fragment” value in assay [1] is reported as “did not suppress”.

B1: BDNF: brain-derived neurotrophic factor, member of the neurotrophin nerve growth factor family, purchased from Merck (protein, UniProt P23560 19-247, looked up)
Neurotrophic factor BDNF …: APMKEANIRGQGGLAYPGVRTHGTLESVNGPKAGSRGLTSLADTFEHVIEELLDEDQKVRPNEENNKDADLYTSRVMLSSQVPLEPPLLFLLEEYKNYLDAANMSMRVRRHSDPARRGELSVCDSISEWVTAADKKTAVDMSGGTVTVLEKVPVSKGQLKQYFYETKCNPMGYTKEGCRGIDKRHWNSQCRTTQSYVRALTMDSKKRIGWRFIRIDTSCVCTLTIKRGR
As to B1, in the assay on NgR1, the “upper band of NgR1 (phosphorylated NgR1)” value was “increased”. Further, the “neurite outgrowth in the presence of the Nogo-66 fragment” value in assay [1] is “fails to block”. The “Nogo-A and LINGO-1 protein levels” value with Nogo-A, LINGO-1 is “neither Nogo-A nor LINGO-1 showed significant changes”.

The values are drawn from US9089565B2, “Compositions and methods for causing neurite outgrowth” (MEDICAL RESEARCH COUNCIL, priority 2009, dated 2015).
